Assay results taken from US20140087995A1 (published 2014).
Like-named read-outs stand apart in the source and are kept apart here. Numbered stars: 1 amine (or outer) side, 2 acyl side, 3 side chain; on linkers, the order of the positions; unused ones are H or OH. Bridge positions count the residues as written; N and C are the ends. Side chains are listed from the residue outwards. Ends that are not written are not given here. * marks the point of attachment. C20 diacid = O=C(O)CCCCCCCCCCCCCCCCCCC(=O)*; γGlu = O=C(O)[C@H](CCC(=O)[*:2])N[*:1]

How the values were obtained:
[1] = biological target: T1, human amylin receptor (amylin 3(a) receptor: human calcitonin receptor with RAMP-3) (human, UniProt P30988 25-474; O60896 24-148, limits assumed); assay: cell-based or functional assay
T1 sequence (looked up) 1: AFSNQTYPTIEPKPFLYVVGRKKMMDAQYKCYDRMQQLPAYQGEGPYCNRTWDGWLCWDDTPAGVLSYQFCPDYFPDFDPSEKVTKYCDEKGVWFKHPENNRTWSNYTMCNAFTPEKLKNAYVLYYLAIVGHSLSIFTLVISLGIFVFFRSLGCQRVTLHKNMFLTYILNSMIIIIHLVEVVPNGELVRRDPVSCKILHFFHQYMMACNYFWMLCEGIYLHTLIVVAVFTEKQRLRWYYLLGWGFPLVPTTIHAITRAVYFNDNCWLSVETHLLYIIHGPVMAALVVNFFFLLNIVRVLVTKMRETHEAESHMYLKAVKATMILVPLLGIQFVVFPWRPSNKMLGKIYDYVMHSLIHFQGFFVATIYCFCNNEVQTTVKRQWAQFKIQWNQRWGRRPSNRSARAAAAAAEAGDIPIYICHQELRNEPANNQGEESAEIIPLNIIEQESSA
T1 sequence (looked up) 2: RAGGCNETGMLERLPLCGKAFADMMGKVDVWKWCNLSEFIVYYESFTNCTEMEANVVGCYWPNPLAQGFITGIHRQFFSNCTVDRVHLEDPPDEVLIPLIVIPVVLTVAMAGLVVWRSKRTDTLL

[2] = biological target: T2, human calcitonin receptor (human, UniProt P30988 25-474); assay: cell-based or functional assay
T2 sequence (looked up): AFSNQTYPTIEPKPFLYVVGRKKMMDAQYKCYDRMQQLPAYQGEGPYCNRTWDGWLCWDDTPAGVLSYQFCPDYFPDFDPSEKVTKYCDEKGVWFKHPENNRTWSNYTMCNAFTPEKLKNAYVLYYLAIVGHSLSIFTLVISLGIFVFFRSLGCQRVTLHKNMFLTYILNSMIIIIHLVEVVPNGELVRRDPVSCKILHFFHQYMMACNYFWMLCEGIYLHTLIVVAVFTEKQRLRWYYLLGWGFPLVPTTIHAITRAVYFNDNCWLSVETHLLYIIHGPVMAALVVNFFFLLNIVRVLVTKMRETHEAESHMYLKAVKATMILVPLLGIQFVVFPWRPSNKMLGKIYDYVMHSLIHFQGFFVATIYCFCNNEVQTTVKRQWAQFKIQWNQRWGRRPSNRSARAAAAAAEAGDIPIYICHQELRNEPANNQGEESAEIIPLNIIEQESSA

[3] = biological target: T3, human amylin receptor (amylin 3(a) receptor: human calcitonin receptor with RAMP-3) (human, UniProt P30988 25-474; O60896 24-148, limits assumed); assay: SPA competition binding on membranes of BHK cells with human calcitonin receptor + RAMP-3; displacement of 125I-rat amylin (Assay V)
T3 construct: whole, on cells; Whole cells in the luciferase assay (Assay II a); also called hAmylin-R; hAmylinR
T3 sequence (looked up) 1: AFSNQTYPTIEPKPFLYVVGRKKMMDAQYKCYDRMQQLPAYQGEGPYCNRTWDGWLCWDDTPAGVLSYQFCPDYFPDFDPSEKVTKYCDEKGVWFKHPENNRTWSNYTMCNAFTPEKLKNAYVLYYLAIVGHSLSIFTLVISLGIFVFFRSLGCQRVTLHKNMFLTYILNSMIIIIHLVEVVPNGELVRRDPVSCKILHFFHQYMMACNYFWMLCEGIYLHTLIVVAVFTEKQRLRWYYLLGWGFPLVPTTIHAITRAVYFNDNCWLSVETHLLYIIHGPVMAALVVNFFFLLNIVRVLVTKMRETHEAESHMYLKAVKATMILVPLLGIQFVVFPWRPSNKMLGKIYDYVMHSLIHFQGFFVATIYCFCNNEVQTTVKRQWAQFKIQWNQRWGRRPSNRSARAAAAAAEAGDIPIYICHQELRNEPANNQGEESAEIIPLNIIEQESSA
T3 sequence (looked up) 2: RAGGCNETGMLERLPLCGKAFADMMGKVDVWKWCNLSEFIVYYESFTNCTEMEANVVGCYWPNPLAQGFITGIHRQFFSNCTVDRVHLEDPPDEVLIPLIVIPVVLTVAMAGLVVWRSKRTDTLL
Summary of the method: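 SPA beads + BHK amylin 3(a)/CRE-luc membranes, 35 ng/μL final; buffer 50 mM Hepes pH 7.4, 1 mM CaCl2, 5 mM MgCl₂, 0.1% OA, 0.02% Tween20. 120 min, 25° C, shaken; scintillation count. IC₅₀ by one-site binding competition fit, taken as receptor affinity.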

[4] = biological target: T4, human calcitonin receptor (human, UniProt P30988 25-474); assay: cell-based or functional assay; remark: listed apart in the source
T4 sequence (looked up): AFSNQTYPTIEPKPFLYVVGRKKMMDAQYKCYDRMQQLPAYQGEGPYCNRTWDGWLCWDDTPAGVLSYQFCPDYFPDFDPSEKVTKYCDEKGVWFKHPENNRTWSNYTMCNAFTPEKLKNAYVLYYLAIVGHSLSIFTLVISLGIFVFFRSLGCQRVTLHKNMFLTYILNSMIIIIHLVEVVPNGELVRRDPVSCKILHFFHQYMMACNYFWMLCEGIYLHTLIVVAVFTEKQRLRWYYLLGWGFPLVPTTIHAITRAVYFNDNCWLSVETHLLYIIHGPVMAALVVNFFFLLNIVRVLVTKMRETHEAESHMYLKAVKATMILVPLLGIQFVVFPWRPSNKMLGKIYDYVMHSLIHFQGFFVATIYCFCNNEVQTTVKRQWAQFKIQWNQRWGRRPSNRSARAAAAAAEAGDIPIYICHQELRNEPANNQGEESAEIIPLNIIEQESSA

Row | Ratio hCT/hAmylin funct. [1] | hAmylin-R funct. EC50 (pM) [1] | hCTR funct. EC50 (pM) [2] | IC50 [3] | Ratio hCT/hAmylin funct. [4] | hCTR funct. EC50 (pM) [4] | Binder
1 | 5.3 | 159 pM | 843 pM | – | – | – | K([γGlu-γGlu-C20 diacid])CNTATCATQRLADFLRHSSPNFGAIPSSTNVGPETY-NH2 (disulfide 2-7 (inferred))
2 | – | 146 pM | 3640 pM | – | – | – | K([γGlu-C20 diacid])CNTATCATQRLADFLRHSSPNFGAIPSSTNVGPRTY-NH2 (disulfide 2-7 (inferred))
3 | – | 425 pM | 5580 pM | – | – | – | K([γGlu-C20 diacid])CNTATCATQRLAEFLRHSSPNFGAIPSSTNVGSHTY-NH2 (disulfide 2-7 (inferred))
4 | – | – | – | 0.88 nM | 26 ratio | 8660 pM | K([γGlu-γGlu-C20 diacid])CNTATCATQRLANFLRHSSPNFGAIPSSTPVGPRTY-NH2 (disulfide 2-7; N-terminus assumed; SMILES CC[C@H](C)[C@H](NC(=O)[C@H](C)NC(=O)CNC(=O)[C@H](Cc1ccccc1)NC(=O)[C@H](CC(N)=O)NC(=O)[C@@H]1CCCN1C(=O)[C@H](CO)NC(=O)[C@H](CO)NC(=O)[C@H](Cc1c[nH]cn1)NC(=O)[C@H](CCCNC(=N)N)NC(=O)[C@H](CC(C)C)NC(=O)[C@H](Cc1ccccc1)NC(=O)[C@H](CC(N)=O)NC(=O)[C@H](C)NC(=O)[C@H](CC(C)C)NC(=O)[C@H](CCCNC(=N)N)NC(=O)[C@H](CCC(N)=O)NC(=O)[C@@H](NC(=O)[C@H](C)NC(=O)[C@@H]1CSSC[C@H](NC(=O)[C@@H](N)CCCCNC(=O)CC[C@H](NC(=O)CC[C@H](NC(=O)CCCCCCCCCCCCCCCCCCC(=O)O)C(=O)O)C(=O)O)C(=O)N[C@@H](CC(N)=O)C(=O)N[C@@H]([C@@H](C)O)C(=O)N[C@@H](C)C(=O)N[C@@H]([C@@H](C)O)C(=O)N1)[C@@H](C)O)C(=O)N1CCC[C@H]1C(=O)N[C@@H](CO)C(=O)N[C@@H](CO)C(=O)N[C@H](C(=O)N1CCC[C@H]1C(=O)N[C@H](C(=O)NCC(=O)N1CCC[C@H]1C(=O)N[C@@H](CCCNC(=N)N)C(=O)N[C@H](C(=O)N[C@@H](Cc1ccc(O)cc1)C(N)=O)[C@@H](C)O)C(C)C)[C@@H](C)O)
